The target of assay [1] is T1, A-beta42 oligomers (synthetic, commercially prepared, SynAging SAS) (human). The assay can be described thus: cell-based or functional assay.
The target in assay [2] is T2, cyclo(CGQKLVG) conjugated to BSA (also: conjugated to BSA).
T2 construct: BSA carrier is not written as a chain
T2 peptide: cyclo(CGQKLVG)
The assay can be described thus: ELISA and SPR on peptide-BSA conjugates.

For assay [3], the target named is T1, A-beta42 oligomers (synthetic, …). The assay can be described thus: ProteOn biosensor, antibody captured or amine-coupled on GLM chip, AbO 12.3 nM to 1 uM; approximate kinetic value.
For assay [4], the target named is T3, cyclo(CGHHQKG) conjugated to BSA (also: conjugated to BSA).
T3 construct: HHQK are A-beta residues 13-16; C and G residues are linker; BSA carrier is not written as a chain; also called Cyclo-BSA
T3 peptide: cyclo(CGHHQKG)
Nature of the assay: ProteOn biosensor, antibody amine-coupled on GLH chip, cyclo-BSA 111 pM to 9 nM. The protocol:
Cyclo-BSA 3-fold dilutions were used from 9 nM to 111 pM. Assay buffer was PBS-E+0.05% Tween+10 mg/ml BSA.

Assay [5] has as its target T3, cyclo(CGHHQKG) conjugated to BSA. Nature of the assay: ELISA and SPR on peptide-BSA conjugates.
For assay [6], the target named is T4, cyclo(CGHDSGG) conjugated to BSA (also: conjugated to BSA).
T4 construct: BSA carrier is not written as a chain
T4 peptide: cyclo(CGHDSGG)
Nature of the assay: ELISA and SPR on peptide-BSA conjugates.

T1 sequence (peptide, as listed by the source): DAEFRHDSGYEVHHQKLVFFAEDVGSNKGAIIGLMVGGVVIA

B1: antibody 305-61 (IgG3, kappa), raised against cyclo(CGQKLVG) (antibody, V domains shown)
VH: QVQLQQSGAELVRPGASVTLSCKASGYTFTDYEMHWVKQTPVHGLEWIGAIDPETGDTAYNQEFKGKATLTADKSSSTAYMELRSLTSEDSAVYYCTSPIYYDYDWFAYWGHGTLVTVSA
VL: DIVMSQSPSSLAVSAGEKVTMSCKSSQSLLNNRTRKNYLAWYQQKPGQSPKLLIYWASTRESGVPDRFTGSGSGTDFTLTISSVQAEDLAVYYCKQSYNLRTFGGGTKLEIKR
notes: Mouse IgG3/kappa; Entries as printed include the leader peptide and a few constant-region residues; also called 7E9.1
For B1, the “remaining cell viability at a molar ratio of 1:2 (AβO:AB1)” value in assay [1] was 80.1 % of control. In addition, the binding result in assay [2] is “binds”.

B2: antibody 305-59 (IgG1, kappa), raised against cyclo(CGQKLVG) (antibody, V domains shown)
VH: EVQLQQSGAELVKPGASVKLSCTVSGFNIKDTYVHWVKQRPEQGLEWIGRIAPASGNTKYAPNFQDKATITADTSSNTAYLQLNSLTSEDTAVYYCARHVYWGQGTLVTVSA
VL: SIVMTQTPKFLLVSAGDRVTITCKASQSVSNDVVWYQQKPGQSPKLLIYYASNRYTGVPDRFTGSGYGTDFTFTISTVQAEDLAVYFCQQDYISPYTFGGGTKLEIK
notes: Mouse IgG1/kappa; Entries as printed include the leader peptide; also called 59 (5G1)
On to B2, for which the binding result in assay [2] was “binds”.

B3: antibody 305-62 (IgG1, kappa), raised against cyclo(CGQKLVG) (antibody, V domains shown)
VH: QVTLKESGPGILKPSQTLSLTCSFSGFSLSTSGMGVGWIRQPSGKGLEWLAHIWWDDDKYYNPSLKSQLTISKDTSRNQVFLKITSVDTADTATYYCARSITTVVATPFDYWGQGTTLTVSS
VL: DIVMTQSQKFMSTSVGDRVSITCKASQNVRSAVAWYQQKPGQSPKALIYLASNRHTGVPDRFTGSGSGTDFTLTISNVHSEDLTDYFCLQHWNSPFTFGGGTKLEIKR
notes: Mouse IgG1/kappa; Entries as printed include the leader peptide and a few constant-region residues
On to B3, for which, in assay [2], the binding result is given as “binds”.

B4: antibody 301-17 (hybridoma-purified, IgG3, kappa), raised against cyclo(CGHHQKG) (antibody, V domains shown)
VH: QVQLQQPGAELVKPGASVKMSCKASGYSFTSYWINWVKQRPGQGLEWIGDVHPGRGVSTYNAKFKSKATLTLDTSSSTAYMQLSSLTSEDSAVYYCSRSHGNTYWFFDVWGAGTTVTVSS
VL: DVLMTQTPLSLPVSLGDQASISCRSSQSIVHSNGNTYLEWYLQKPGQSPKLLIYKVSNRFSGVPDRFSGSGSGTDFTLKISRVEAEDLGVYYCFQGSHVPFTFGSGTKLEIKR
notes: Mouse IgG3/kappa
In turn, B4 gave a Kd in assay [3] of roughly 26.9 nM.

B5: recombinant 301-17 IgG2a (antibody, V domains shown)
VH: QVQLQQPGAELVKPGASVKMSCKASGYSFTSYWINWVKQRPGQGLEWIGDVHPGRGVSTYNAKFKSKATLTLDTSSSTAYMQLSSLTSEDSAVYYCSRSHGNTYWFFDVWGAGTTVTVSS
VL: DVLMTQTPLSLPVSLGDQASISCRSSQSIVHSNGNTYLEWYLQKPGQSPKLLIYKVSNRFSGVPDRFSGSGSGTDFTLKISRVEAEDLGVYYCFQGSHVPFTFGSGTKLEIKR
As to B5, the Kd is roughly 0.017 nM in assay [4] and 16.2 to 19.5 nM in assay [3].

B6: antibody 301-11 (IgG3, kappa), raised against cyclo(CGHHQKG) (antibody, V domains shown)
VH: EVQLVESGGGLVKPGGSLKLSCAASGFTFSDYYMYWVRQTPEKRLEWVATISDGGSYTSYPDSVKGRFTISRDNAKNNLYLQMSSLRSEDTAMYYCARDYYGSSSYTSGFAYWGQGTLVTVSA
VL: DIVMSQSPSSLAVSTGEKVTMSCKSSQSLLNSRTRKNYLAWYQQKPGQSPKLLIYWASTRESGVPDRFTGSGSGTDFTLTISSVQAEDLAVYYCKQSYNLYTFGGGTKLEIK
notes: Mouse IgG3/kappa; Entries as printed include the leader peptide
In the case of B6, the binding result in assay [5] is reported as “binds”.

B7: antibody 303-25, raised against cyclo(CGHDSGG) (antibody, V domains shown)
VH: QVQLQQPGAELVRPGASVKLSCKASGYTFTSYWMNWVKQRPGQGLEWIGMIDPSDSQTHYNQMFKDKATLTVDKSSSTAYLQLSSLTSEDSAVYYCSRGGYWGQGTTLTVSS
VL: DIQMTQSPSSLSASLGGKVTITCKASQDINNYIAWYQHKPGKGPRQLIYYTSTLQPGIPSRFSGSGSGRDYSFTISDLEPEDIATYYCLQYDNLWTFGGGTKLEIK
notes: Mouse, kappa; Entries as printed include the leader peptide
Regarding B7, the “remaining cell viability at a molar ratio of 1:2 (AβO:AB1)” value in assay [1] was 88.8 % of control. In addition, in assay [6], the binding result is recorded as “binds”.

The record behind these values is US20190151401A1 (UNIVERSITY OF BRITISH COLUMBIA, published 2019).
